Earlier results, collected in PMC3814599.
Several values for one entry are separate records, joined by “and”; a condition that tells them apart may be missing. Equal entries are not always repeated.

Biological target: HIV-1 capsid (CA) NTD (Human immunodeficiency virus 1) (UniProt O93182)

Chain of NUP358 (P49792 whole entry): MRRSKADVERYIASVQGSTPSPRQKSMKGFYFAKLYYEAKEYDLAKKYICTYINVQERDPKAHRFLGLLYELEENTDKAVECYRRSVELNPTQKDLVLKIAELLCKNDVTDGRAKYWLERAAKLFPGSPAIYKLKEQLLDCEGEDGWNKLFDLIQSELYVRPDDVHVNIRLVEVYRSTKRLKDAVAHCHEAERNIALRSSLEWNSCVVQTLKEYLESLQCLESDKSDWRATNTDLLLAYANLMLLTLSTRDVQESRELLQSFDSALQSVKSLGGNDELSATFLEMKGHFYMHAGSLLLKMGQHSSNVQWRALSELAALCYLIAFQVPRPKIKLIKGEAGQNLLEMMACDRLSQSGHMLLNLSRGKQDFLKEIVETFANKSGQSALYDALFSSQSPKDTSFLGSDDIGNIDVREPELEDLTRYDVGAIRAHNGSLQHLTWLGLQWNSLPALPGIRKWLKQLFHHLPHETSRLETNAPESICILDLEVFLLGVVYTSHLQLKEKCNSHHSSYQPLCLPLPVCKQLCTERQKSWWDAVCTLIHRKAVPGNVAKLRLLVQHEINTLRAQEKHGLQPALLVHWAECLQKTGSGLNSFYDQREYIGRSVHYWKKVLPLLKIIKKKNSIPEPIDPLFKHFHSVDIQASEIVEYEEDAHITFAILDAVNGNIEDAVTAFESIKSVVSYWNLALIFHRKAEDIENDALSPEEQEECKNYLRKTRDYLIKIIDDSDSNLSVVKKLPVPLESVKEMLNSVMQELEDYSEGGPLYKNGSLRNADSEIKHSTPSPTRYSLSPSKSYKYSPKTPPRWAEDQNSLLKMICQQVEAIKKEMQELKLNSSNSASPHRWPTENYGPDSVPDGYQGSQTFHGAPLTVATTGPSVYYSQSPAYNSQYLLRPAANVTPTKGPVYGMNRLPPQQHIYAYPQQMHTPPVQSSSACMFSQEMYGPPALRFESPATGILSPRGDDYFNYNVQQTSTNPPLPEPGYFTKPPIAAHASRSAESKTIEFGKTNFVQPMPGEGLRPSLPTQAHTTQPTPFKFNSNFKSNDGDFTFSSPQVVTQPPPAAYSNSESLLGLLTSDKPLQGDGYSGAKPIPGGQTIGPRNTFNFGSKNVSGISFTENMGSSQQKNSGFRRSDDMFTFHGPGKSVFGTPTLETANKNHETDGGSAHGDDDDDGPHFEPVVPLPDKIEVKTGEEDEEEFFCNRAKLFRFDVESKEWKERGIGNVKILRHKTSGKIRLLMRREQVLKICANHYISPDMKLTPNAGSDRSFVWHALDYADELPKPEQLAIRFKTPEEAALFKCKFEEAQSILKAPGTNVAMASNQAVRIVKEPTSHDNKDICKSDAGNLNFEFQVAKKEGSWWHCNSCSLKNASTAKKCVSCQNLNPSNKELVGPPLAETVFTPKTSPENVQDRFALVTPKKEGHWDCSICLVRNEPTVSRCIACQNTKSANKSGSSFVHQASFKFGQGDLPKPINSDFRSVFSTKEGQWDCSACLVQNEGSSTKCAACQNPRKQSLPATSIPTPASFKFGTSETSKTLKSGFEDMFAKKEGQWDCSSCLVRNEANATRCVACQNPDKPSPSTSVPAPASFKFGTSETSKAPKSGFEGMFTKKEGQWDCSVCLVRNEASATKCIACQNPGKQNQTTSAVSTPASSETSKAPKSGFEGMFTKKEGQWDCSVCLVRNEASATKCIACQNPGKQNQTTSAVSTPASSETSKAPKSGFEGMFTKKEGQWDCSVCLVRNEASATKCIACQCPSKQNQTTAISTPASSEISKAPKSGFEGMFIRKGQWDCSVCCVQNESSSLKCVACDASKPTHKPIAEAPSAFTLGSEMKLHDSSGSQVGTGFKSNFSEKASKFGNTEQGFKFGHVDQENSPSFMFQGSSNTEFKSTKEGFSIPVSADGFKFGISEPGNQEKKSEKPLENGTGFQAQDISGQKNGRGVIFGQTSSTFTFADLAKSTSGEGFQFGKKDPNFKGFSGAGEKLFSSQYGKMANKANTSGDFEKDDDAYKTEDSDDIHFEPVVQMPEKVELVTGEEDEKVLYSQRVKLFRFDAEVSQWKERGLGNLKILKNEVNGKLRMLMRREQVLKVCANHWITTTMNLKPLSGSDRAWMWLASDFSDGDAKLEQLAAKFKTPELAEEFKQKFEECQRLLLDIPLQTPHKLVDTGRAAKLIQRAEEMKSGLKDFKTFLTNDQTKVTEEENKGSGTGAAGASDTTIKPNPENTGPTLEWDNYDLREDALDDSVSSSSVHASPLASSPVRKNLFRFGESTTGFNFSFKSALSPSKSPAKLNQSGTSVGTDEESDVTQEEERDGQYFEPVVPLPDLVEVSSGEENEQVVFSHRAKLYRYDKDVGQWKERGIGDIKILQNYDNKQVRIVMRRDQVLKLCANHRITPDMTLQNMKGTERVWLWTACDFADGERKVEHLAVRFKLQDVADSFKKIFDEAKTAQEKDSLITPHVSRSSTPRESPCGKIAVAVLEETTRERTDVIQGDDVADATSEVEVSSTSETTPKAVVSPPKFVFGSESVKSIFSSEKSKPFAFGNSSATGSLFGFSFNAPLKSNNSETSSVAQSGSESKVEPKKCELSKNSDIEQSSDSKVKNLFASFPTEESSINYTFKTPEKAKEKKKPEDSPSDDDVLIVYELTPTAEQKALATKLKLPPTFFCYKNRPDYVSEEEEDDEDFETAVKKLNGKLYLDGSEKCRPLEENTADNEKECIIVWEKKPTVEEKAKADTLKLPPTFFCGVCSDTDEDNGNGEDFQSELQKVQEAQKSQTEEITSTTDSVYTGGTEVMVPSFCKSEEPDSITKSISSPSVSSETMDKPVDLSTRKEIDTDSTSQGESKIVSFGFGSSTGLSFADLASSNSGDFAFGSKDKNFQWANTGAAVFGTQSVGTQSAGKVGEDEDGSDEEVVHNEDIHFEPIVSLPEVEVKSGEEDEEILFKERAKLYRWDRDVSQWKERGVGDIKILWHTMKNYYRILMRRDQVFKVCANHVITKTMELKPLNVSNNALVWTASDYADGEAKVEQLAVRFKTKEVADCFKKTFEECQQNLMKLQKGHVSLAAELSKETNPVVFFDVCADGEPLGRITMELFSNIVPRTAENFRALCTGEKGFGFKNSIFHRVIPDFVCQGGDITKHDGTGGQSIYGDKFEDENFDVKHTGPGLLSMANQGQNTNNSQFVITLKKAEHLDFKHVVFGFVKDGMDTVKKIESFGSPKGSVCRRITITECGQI

Question: For NUP358 (from UniProt P49792), which Kd is on record?
Answer: 150 µM and 16 µM
